Source: patent US20230399412A1 (NANJING IASO BIOTECHNOLOGY, published 2023)

Tests used:
[1] = target: T1, CD70 on the cell surface of CD70-positive cell lines (UniProt P32970 1-193, limits assumed); assay: phage FACS on CD70-positive cell lines (Raji, U266)
T1 construct: whole, on cells; One molecule for all cell lines; the cell line is named under assay; also called natural CD70 on the cell surface; CD70 antigen on Raji, U266, THP-1, RS4:11, REH, Molm-13 cells
T1 sequence (looked up): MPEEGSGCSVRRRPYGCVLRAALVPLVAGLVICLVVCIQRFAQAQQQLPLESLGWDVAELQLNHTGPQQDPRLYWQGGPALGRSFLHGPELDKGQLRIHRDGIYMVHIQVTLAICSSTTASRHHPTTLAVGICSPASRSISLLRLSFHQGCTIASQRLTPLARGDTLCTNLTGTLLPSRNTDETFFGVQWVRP

[2] = target: T2, Biotinylated Human Siglec-2/CD22 Protein, human Fc, Avitag (ACRO biosystem, SI2-H82F8) (human, UniProt P20273 20-687, biotinylated (Avitag)); assay: phage ELISA
T2 construct: Irrelevant control antigen; also called Acro-CD22-Bio; CD22-Fc-Bio; not shown: human Fc and Avitag
T2 sequence (looked up): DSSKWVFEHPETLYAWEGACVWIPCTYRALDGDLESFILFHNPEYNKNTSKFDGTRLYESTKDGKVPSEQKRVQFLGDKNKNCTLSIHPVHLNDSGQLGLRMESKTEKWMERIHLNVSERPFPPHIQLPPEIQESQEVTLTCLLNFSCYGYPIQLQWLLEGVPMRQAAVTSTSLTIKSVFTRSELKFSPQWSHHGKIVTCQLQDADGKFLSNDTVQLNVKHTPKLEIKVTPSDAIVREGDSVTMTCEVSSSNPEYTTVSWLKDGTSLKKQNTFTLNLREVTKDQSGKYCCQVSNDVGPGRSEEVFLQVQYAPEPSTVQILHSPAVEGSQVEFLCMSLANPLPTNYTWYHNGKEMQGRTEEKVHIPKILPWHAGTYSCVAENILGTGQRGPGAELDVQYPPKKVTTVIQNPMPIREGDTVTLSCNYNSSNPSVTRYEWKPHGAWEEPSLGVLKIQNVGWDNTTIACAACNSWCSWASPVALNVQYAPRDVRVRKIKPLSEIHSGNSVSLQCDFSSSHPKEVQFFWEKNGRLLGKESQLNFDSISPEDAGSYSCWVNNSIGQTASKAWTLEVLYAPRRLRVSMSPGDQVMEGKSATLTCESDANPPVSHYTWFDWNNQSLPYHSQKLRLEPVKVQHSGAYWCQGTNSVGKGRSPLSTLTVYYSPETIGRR

[3] = target: T3, Human CD70/CD27 Ligand Protein-his-Trimer (Kactus, CD7-HM271-1) (human, UniProt P32970 39-193); assay: phage ELISA
T3 construct: Bought reagent, named a trimer; also called Kactus-CD70 Trimer-his; Kactus-CD70Trimer-his; not shown: His tag (and any trimerisation part)
T3 sequence (looked up): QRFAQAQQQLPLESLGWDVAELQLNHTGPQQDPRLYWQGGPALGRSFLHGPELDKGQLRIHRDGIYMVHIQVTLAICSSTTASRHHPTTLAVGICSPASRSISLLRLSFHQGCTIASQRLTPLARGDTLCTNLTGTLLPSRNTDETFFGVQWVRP

[4] = target: T4, Human CD70/CD27 Ligand Protein-his-Trimer-Biotin (Kactus, CD7-HM271) (human, UniProt P32970 39-193, biotinylated); assay: phage ELISA
T4 construct: Bought reagent, named a trimer; also called Kactus-CD70Trimer-his-Bio; Katcus-CD70 Trimer-His-Bio; not shown: His tag (and any trimerisation part)
T4 sequence (looked up): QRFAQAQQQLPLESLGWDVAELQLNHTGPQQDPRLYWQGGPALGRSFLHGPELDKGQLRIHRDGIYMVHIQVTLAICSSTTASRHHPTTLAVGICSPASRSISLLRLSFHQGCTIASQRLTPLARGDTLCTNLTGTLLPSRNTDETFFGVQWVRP

[5] = target: T5, Biotinylated Human CD27 Ligand, HIS, Avitag (ACRO biosystem, CDL-H82Q9) (human, UniProt P32970 39-193, biotinylated (Avitag)); assay: phage ELISA
T5 construct: Bought reagent; also called Acro-CD70-his-Bio; CD70-his-Bio; not shown: His tag and Avitag
T5 sequence (looked up): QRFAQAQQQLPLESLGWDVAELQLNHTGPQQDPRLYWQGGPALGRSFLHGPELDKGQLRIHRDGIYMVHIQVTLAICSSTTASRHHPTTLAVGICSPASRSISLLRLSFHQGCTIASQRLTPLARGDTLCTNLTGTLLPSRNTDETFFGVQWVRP

[6] = target: T6, Biotinylated Human CD27 Ligand, Avitag, human Fc Tag (ACRO biosystem, TN7-H82F4) (human, UniProt P32970 39-193, biotinylated (Avitag)); assay: phage ELISA
T6 construct: Bought reagent; also called Acro-CD70-Fc-Bio; not shown: human Fc tag and Avitag
T6 sequence (looked up): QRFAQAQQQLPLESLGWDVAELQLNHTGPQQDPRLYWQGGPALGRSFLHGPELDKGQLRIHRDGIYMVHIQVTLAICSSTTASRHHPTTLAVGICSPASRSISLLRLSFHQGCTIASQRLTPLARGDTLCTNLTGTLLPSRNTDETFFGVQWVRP

[7] = target: T7, Human CD70/CD27 Ligand Protein (human FC Tag)-Biotin (Kactus, CD7-HM270) (human, UniProt P32970 39-193, biotinylated); assay: phage ELISA
T7 construct: Bought reagent; also called Kactus-CD70-Fc-Bio; Katcus-CD70-Fc-Bio; not shown: human Fc tag
T7 sequence (looked up): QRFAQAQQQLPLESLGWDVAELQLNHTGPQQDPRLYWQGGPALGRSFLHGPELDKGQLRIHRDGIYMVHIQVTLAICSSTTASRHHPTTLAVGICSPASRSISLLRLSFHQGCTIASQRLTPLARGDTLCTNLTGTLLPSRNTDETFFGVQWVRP

| Binder | binding result [1] | binding result [2] | binding result [3] | binding result [4] | binding result [5] | binding result [6] | binding result [7] |
| --- | --- | --- | --- | --- | --- | --- | --- |
| phage monoclonal antibody clone #6 (scFv, also called scFv 06; Scfv06) scFv: QAVLTQPPSASATPGQRVSISCSGSSSNIGRNTVNWYQHLPGTAPKLLIYSNDHRPSGVPDRFSGSQSGTSASLAISGLQSEDEADYYCASWDDSLTGWVFGGGTKVTVLGSRGGGGSGGGGSGGGGSLEMAQVQLVQSGAEVKKAGSSLKVSCKANGGSFTNYLINWVRQAPGQGLEWMGGIIPVYGTPIYSQKFQGRVTFTADEPTRTAYMELSSLTFEDTAVYYCVREDEGYGDLYLAYWGQGTLVTVSS | binds | no binding | binds | binds | binds | binds | binds |
| phage monoclonal antibody clone #9 (VHH, single-domain antibody (heavy chain variable region alone); also called VHH 09; 09 antibody) VHH: EVQLLESGGGLVQPGGSLRLSCAASGFTFNIDAMGWVRQAPGKGLEWVSSISSSGGTTYYADSVKGRFTISRDNSKNTLYLQMNSLRAEDTAVYYCARSRYSVPDGRGSYDVWGQGTLVTVSS | binds | no binding | binds | binds | binds | binds | binds |
| phage monoclonal antibody clone #20 (VHH, single-domain antibody (heavy chain variable region alone); also called VHH20; VHH 20) VHH: EVQLLESGGGLVQPGGSLRLSCAASGFTFSSYAMGWVRQAPGKGLEWVSSISGYGEETYYADSVKGRFTISRDNSKNTLYLQMNSLRAEDTAVYYCARFYYRYWKEFDYWGQGTLVTVSS | binds | no binding | binds | binds | binds | binds | binds |
| phage monoclonal antibody clone #21 (VHH, single-domain antibody (heavy chain variable region alone); also called VHH21; VHH 21) VHH: EVQLLESGGGLVQPGGSLRLSCAASGFTFSNYAMGWVRQAPGKGLEWVSSITGLGGNMYYADSVKGRFTISRDNSKNTLYLQMNSLRAEDTAVYYCARMYYSQGVNNYSYPSTDIWGQGTLVTVSS | binds | no binding | binds | binds | binds | binds | binds |
| phage monoclonal antibody clone #13 (VHH, single-domain antibody (heavy chain variable region alone); also called VHH13; VHH 13) VHH: EVQLLESGGGLVQPGGSLRLSCAASGFTFSSEAMGWVRQAPGKGLEWVSSINGSGRNTYYADSVKGRFTISRDNSKNTLYLQMNSLRAEDTAVYYCARKHGEYYDSGYDVWGQGTLVTVSS |  | no binding |  |  |  |  |  |
